T1: Nnf1a^122–147 peptide (Drosophila melanogaster, N-terminus acetylated; C-terminus amidated)
T1 construct: also called Peptide Nnf1; Nnf1a R122-A147; source: synthetic peptide, bought: GenScript
T1 peptide: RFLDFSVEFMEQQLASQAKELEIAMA

T2: 6xHis::Nsl1 (Drosophila melanogaster, UniProt Q9VYX4 1-183)
T2 construct: residues up to 183 are printed; not the NSL-complex protein of the same name; source: E. coli BL21(DE3), co-expressed from Duet vectors (induced overnight); in lysate for Ni-NTA co-purification, then purified (Ni-NTA, SEC)
T2 sequence (looked up): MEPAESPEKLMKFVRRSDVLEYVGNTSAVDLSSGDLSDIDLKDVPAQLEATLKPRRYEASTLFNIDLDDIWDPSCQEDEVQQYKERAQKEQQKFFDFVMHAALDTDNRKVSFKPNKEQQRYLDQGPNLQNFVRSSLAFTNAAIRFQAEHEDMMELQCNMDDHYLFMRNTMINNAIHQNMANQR

T3: 6xHis::CENP-C^1–94 (Drosophila melanogaster, UniProt Q9VHP9 1-94)
T3 construct: also called His-tagged CENP-C 1-94; source: E. coli BL21(DE3)
T3 sequence (looked up): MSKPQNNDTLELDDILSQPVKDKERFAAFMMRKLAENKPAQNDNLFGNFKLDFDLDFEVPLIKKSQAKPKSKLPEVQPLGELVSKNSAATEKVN

T4: 6xHis::Nnf1a (Drosophila melanogaster, UniProt Q7JZC9 1-194)
T4 construct: written 6xHis::Nnf1a; also called polyhistidine (His)-tagged Nnf1a; source: E. coli BL21(DE3), co-expressed from Duet vectors; in lysate for Ni-NTA co-purification, then purified (Ni-NTA, SEC)
T4 sequence (looked up): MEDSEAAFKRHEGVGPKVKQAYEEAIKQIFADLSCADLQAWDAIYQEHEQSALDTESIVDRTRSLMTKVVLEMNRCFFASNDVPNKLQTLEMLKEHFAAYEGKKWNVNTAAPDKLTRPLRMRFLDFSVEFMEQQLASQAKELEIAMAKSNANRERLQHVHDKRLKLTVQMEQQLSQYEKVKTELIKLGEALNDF

B1: Mis12^101–130 peptide (peptide)
peptide: Ac-TSEEEEQKTARLEELKAKYRENMAMLAHLK-NH2
notes: also called Mis12 peptide; Mis12 T101-K130; source: synthetic peptide, bought: GenScript
B2: CENP-C^1–94 (untagged, recombinant) (domain or fragment, Drosophila melanogaster, UniProt Q9VHP9 1-94, looked up)
chain: T3 sequence (looked up)
notes: also called amino-terminal part of CENP-C (residues 1–94); source: E. coli BL21(DE3), co-expressed from Duet vectors; in lysate for Ni-NTA co-purification, then purified (Ni-NTA, SEC)
B3: Nnf1a + Mis12 (both untagged) (complex, Drosophila melanogaster)
chain 1: T4 sequence (looked up)
chain 2: MDFNSLAYDQKFFNFTAAQLSAEREHIVQDIIKKGIGQIIDKIKTPATAELLEAEKETVERRFQASASKGLKALRELDSKVFHVPPHVLHPEHMFVENQYTSEEEEQKTARLEELKAKYRENMAMLAHLKIEEEKYAAMEDLIQKEIEMQDRVQRSCSSLNITKLKQFWNQVPLQIKKETD
notes: Nnf1a, as m6; Mis12, as m2; co-purified through a His tag on the third co-expressed protein; also called Mis12–Nnf1a dimer; MN dimer; source: E. coli BL21(DE3), co-expressed from Duet vectors; in lysate for Ni-NTA co-purification, then purified (Ni-NTA, SEC); copies: 1 + 1
B4: Mis12 (untagged, recombinant) (natural protein, Drosophila melanogaster, UniProt Q9VS01 1-181, looked up)
chain: B3 chain 2
notes: source: E. coli BL21(DE3), co-expressed from Duet vectors; in lysate for Ni-NTA co-purification, then purified (Ni-NTA, SEC)
B5: 6xHis::Nnf1a–Mis12 heterodimer (complex, Drosophila melanogaster)
chain 1: T4 sequence (looked up)
chain 2: B3 chain 2
notes: Nnf1a, as m1; Mis12, as m2; 1 : 1 by SEC-MALS; also called MN dimer; MN; source: E. coli BL21(DE3), co-expressed from Duet vectors; in lysate for Ni-NTA co-purification, then purified (Ni-NTA, SEC); copies: 1 + 1

How the values were obtained:
[1] = molecular target: Mis12–Nnf1a–CENP-C^1–94 complex (Drosophila melanogaster) (UniProt Q9VHP9); assay: SEC-MALS; complexes already collected from SEC, stored at 4 °C in SEC buffer and re-loaded; two elution peaks, masses by MALS
[2] = molecular target: T1, Nnf1a^122–147 peptide; assay: circular dichroism; synthetic peptides alone and in equimolar mixture, 0.1 M PBS pH 7.4, 195–270 nm, room temperature; conditions: both partners purified
[3] = molecular target: B5; assay: SEC-MALS; co-expressed, co-purified complexes on Superdex 200 10/300 at 4 °C, 150 mM NaCl, 10 mM Tris/HCl pH 8.0, in-line MALS and refractometer; conditions: both partners purified
[4] = molecular target: T2, 6xHis::Nsl1; assay: as above; conditions: both partners purified
[5] = molecular target: T3, 6xHis::CENP-C^1–94; assay: as above; conditions: both partners purified
[6] = molecular target: T4, 6xHis::Nnf1a; assay: as above; conditions: both partners purified
[7] = molecular target: the molecule itself; assay: SEC-MALS; complexes already collected from SEC, stored at 4 °C in SEC buffer and re-loaded; two elution peaks, masses by MALS

Mis12–Nnf1a–CENP-C^1–94 complex (from UniProt Q9VHP9 1-94)
stoichiometry N [1]: 2

B1
binding result [2]: binds

B2
stoichiometry N [3]: 1

B3
stoichiometry N [4]: 1
stoichiometry N [5]: 1

B4
stoichiometry N [6]: 1

B5
stoichiometry N [7]: 2

Reference: PMC4772809, “Network of protein interactions within the Drosophila inner kinetochore” (Open Biology, 2016)
